Consider seven molecules from paper PMC7306444.

Targets include GST-hFMRP KH2 (Homo sapiens, UniProt Q06787 281-425); GST-hFMRP KH1-KH2 (Homo sapiens, UniProt Q06787 216-425); GST-hFMRP KH1 (Homo sapiens, UniProt Q06787 216-280); GST-hFMRP KH0 (Homo sapiens, UniProt Q06787 126-201); GST-hFMRP KH0-KH1-KH2 (Homo sapiens, UniProt Q06787 126-425); NT-hFMRP ΔKH1 (Homo sapiens, UniProt Q06787 281-632); NT-hFMRP (Homo sapiens, UniProt Q06787 218-632); GST-hFMRP RGG (Homo sapiens, UniProt Q06787 531-632).

Common to all, as to assay: fluorescence anisotropy
Background: Polarisation of emitted light reports the rotation of a fluorescent probe.

With UUGGAUGGAUGGAUGGAU (structured_RNA) [(UGGA)4], the binding result with GST-hFMRP KH2, with GST-hFMRP KH1-KH2, with GST-hFMRP KH1, with GST-hFMRP KH0 and in the series with GST-hFMRP KH0-KH1-KH2 was “no binding” throughout. The Kd (commonly the equilibrium constant for the complex coming apart) in the series with NT-hFMRP ΔKH1 was determined as 840 ± 39 nM; with NT-hFMRP, 710 ± 50 nM.

Consider CCCCCCCUGGACCCCCCU (ssRNA) [UGGA], for which the binding result in the series with NT-hFMRP is listed as “no binding”.

Consider UGACGGACGGACGGACGU (structured_RNA) [(GACG)4], for which the binding result with GST-hFMRP KH2, in the series with GST-hFMRP KH1-KH2, with GST-hFMRP KH1, with GST-hFMRP KH0, with GST-hFMRP KH0-KH1-KH2 and with NT-hFMRP was “no binding” in each case. Also, the binding result with GST-hFMRP RGG was “no binding”.

For UGGGGU (structured_RNA) [UG4U], the Kd with NT-hFMRP ΔKH1 was found to be 80 ± 7 nM; with NT-hFMRP it was 110 ± 16 nM; with GST-hFMRP RGG, 210 ± 18 nM.

With UGGACUUGGACUUGGACU (ssRNA, m6A at position 10) [UGGm6ACU], binding with NT-hFMRP was characterised by a dissociation constant (Kd) of 1250 ± 610 nM.

With GGGGGGGGGGGGGGGGGU (structured_RNA) [PolyG17], the results for the Kd in the series with NT-hFMRP ΔKH1, with NT-hFMRP and in the series with GST-hFMRP RGG were 17 ± 3 nM, 14 ± 2 nM and 8.6 ± 1.2 nM, respectively.

Consider CCCCCCCACUUCCCCCCU (ssRNA) [ACUU], for which the binding result with NT-hFMRP was “no binding”.
